Target: EBOV GP ectodomain for structural work (EBOV Mayinga, residues 33-651, mucin-like domain deleted, double Strep-tag) (Orthoebolavirus zairense (Ebola virus, EBOV), Mayinga) (UniProt Q05320)
Assay: cryo-EM structure

EBOV GP ectodomain for structural work (EBOV Mayinga, residues 33-651, mucin-like domain deleted, double Strep-tag) (from UniProt Q05320 33-651) (domain or fragment)
stoichiometry N: 3

Reference: PMC13365404
